Earlier results as cited in paper PMC7395068, “The evolution of strategies to minimise the risk of human drug-induced liver injury (DILI) in drug discovery and development” (Archives of Toxicology, 2020).

B1: rasburicase (protein, UniProt Q00511 2-302, looked up)
Uricase: SAVKAARYGKDNVRVYKVHKDEKTGVQTVYEMTVCVLLEGEIETSYTKADNSVIVATDSIKNTIYITAKQNPVTPPELFGSILGTHFIEKYNHIHAAHVNIVCHRWTRMDIDGKPHPHSFIRDSEEKRNVQVDVVEGKGIDIKSSLSGLTVLKSTNSQFWGFLRDEYTTLKETWDRILSTDVDATWQWKNFSGLQEVRSHVPKFDATWATAREVTLKTFAEDNSASVQATMYKMAEQILARQQLIETVEYSLPNKHYFEIDLSWHKGLQNTGKNAEVFAPQSDPNGLIKCTVGRSSLKSKL
B2: pegaspargase (protein, UniProt P00805 23-348, looked up)
L-asparaginase 2: LPNITILATGGTIAGGGDSATKSNYTVGKVGVENLVNAVPQLKDIANVKGEQVVNIGSQDMNDNVWLTLAKKINTDCDKTDGFVITHGTDTMEETAYFLDLTVKCDKPVVMVGAMRPSTSMSADGPFNLYNAVVTAADKASANRGVLVVMNDTVLDGRDVTKTNTTDVATFKSVNYGPLGYIHNGKIDYQRTPARKHTSDTPFDVSKLNELPKVGIVYNYANASDLPAKALVDAGYDGIVSAGVGNGNLYKSVFDTLATAAKTGTAVVRSSRVPTGATTQDAEVDDAKYGFVASGTLNPQKARVLLQLALTQTKDPQQIQQIFNQY
modifications: PEG conjugate
B3: laronidase (protein, UniProt P35475 28-653, looked up)
Alpha-L-iduronidase: APHLVHVDAARALWPLRRFWRSTGFCPPLPHSQADQYVLSWDQQLNLAYVGAVPHRGIKQVRTHWLLELVTTRGSTGRGLSYNFTHLDGYLDLLRENQLLPGFELMGSASGHFTDFEDKQQVFEWKDLVSSLARRYIGRYGLAHVSKWNFETWNEPDHHDFDNVSMTMQGFLNYYDACSEGLRAASPALRLGGPGDSFHTPPRSPLSWGLLRHCHDGTNFFTGEAGVRLDYISLHRKGARSSISILEQEKVVAQQIRQLFPKFADTPIYNDEADPLVGWSLPQPWRADVTYAAMVVKVIAQHQNLLLANTTSAFPYALLSNDNAFLSYHPHPFAQRTLTARFQVNNTRPPHVQLLRKPVLTAMGLLALLDEEQLWAEVSQAGTVLDSNHTVGVLASAHRPQGPADAWRAAVLIYASDDTRAHPNRSVAVTLRLRGVPPGPGLVYVTRYLDNGLCSPDGEWRRLGRPVFPTAEQFRRMRAAEDPVAAAPRPLPAGGRLTLRPALRLPSLLLVHVCARPEKPPGQVTRLRALPLTQGQLVLVWSDEHVGSKCLWTYEIQFSQDGKAYTPVSRKPSTFNLFVFSPDTGAVSGSYRVRALDYWARPGPFSDPVPYLEVPVPRGPPSPGNP
B4: interferon gamma-1b (protein, UniProt P01579 24-161, looked up)
Interferon gamma: QDPYVKEAENLKKYFNAGHSDVADNGTLFLGILKNWKEESDRKIMQSQIVSFYFKLFKNFKDDQSIQKSVETIKEDMNVKFFNSNKKKRDDFEKLTNYSVTDLNVQRKAIHELIQVMAELSPAAKTGKRKRSQMLFRG
B5: imiglucerase (protein, UniProt P04062 40-536, looked up, variant R495H)
Lysosomal acid …: ARPCIPKSFGYSSVVCVCNATYCDSFDPPTFPALGTFSRYESTRSGRRMELSMGPIQANHTGTGLLLTLQPEQKFQKVKGFGGAMTDAAALNILALSPPAQNLLLKSYFSEEGIGYNIIRVPMASCDFSIRTYTYADTPDDFQLHNFSLPEEDTKLKIPLIHRALQLAQRPVSLLASPWTSPTWLKTNGAVNGKGSLKGQPGDIYHQTWARYFVKFLDAYAEHKLQFWAVTAENEPSAGLLSGYPFQCLGFTPEHQRDFIARDLGPTLANSTHHNVRLLMLDDQRLLLPHWAKVVLTDPEAAKYVHGIAVHWYLDFLAPAKATLGETHRLFPNTMLFASEACVGSKFWEQSVRLGSWDRGMQYSHSIITNLLYHVVGWTDWNLALNPEGGPNWVRNFVDSPIIVDITKDTFYKQPMFYHLGHFSKFIPEGSQRVGLVASQKNDLDAVALMHPDGSAVVVVLNRSSKDVPLTIKDPAVGFLETISPGYSIHTYLWHRQ
B6: tenecteplase (protein, UniProt P00750 36-562, looked up, variant T103N N117Q K296A H297A R298A R299A)
Tissue-type plasminogen …: SYQVICRDEKTQMIYQQHQSWLRPVLRSNRVEYCWCNSGRAQCHSVPVKSCSEPRCFNGGTCQQALYFSDFVCQCPEGFAGKCCEIDTRATCYEDQGISYRGNWSTAESGAECTNWQSSALAQKPYSGRRPDAIRLGLGNHNYCRNPDRDSKPWCYVFKAGKYSSEFCSTPACSEGNSDCYFGNGSAYRGTHSLTESGASCLPWNSMILIGKVYTAQNPSAQALGLGKHNYCRNPDGDAKPWCHVLKNRRLTWEYCDVPSCSTCGLRQYSQPQFRIKGGLFADIASHPWQAAIFAAAAASPGERFLCGGILISSCWILSAAHCFQERFPPHHLTVILGRTYRVVPGEEEQKFEVEKYIVHKEFDDDTYDNDIALLQLKSDSSRCAQESSVVRTVCLPPADLQLPDWTECELSGYGKHEALSPFYSERLKEAHVRLYPSSRCTSQHLLNRTVTDNMLCAGDTRSGGPQANLHDACQGDSGGPLVCLNDGRMTLVGIISWGLGCGQKDVPGVYTKVTNYLDWIRDNMRP
B7: pegfilgrastim (protein, UniProt P09919 31-207, looked up)
Granulocyte …: TPLGPASSLPQSFLLKCLEQVRKIQGDGAALQEKLVSECATYKLCHPEELVLLGHSLGIPWAPLSSCPSQALQLAGCLSQLHSGLFLYQGLLQALEGISPELGPTLDTLQLDVADFATTIWQQMEELGMAPALQPTQGAMPAFASAFQRRAGGVLVASHLQSFLEVSYRVLRHLAQP
modifications: N-terminal Met; PEG
B8: pegvisomant (protein, UniProt P01241 27-217, looked up, variant H18D H21N Q22N F25S K41I Y42H L45W Q46W G120K R167N D171S E174S I179T)
Somatotropin: FPTIPLSRLFDNAMLRADRLNNLASDTYQEFEEAYIPKEQIHSFWWNPQTSLCFSESIPTPSNREETQQKSNLELLRISLLLIQSWLEPVQFLRSVFANSLVYGASDSNVYDLLKDLEEKIQTLMGRLEDGSPRTGQIFKQTYSKFDTNSHNDDALLKNYGLLYCFNKDMSKVSTFLRTVQCRSVEGSCGF
modifications: PEGylated
B9: idursulfase (protein, UniProt P22304 34-455; P22304 456-550, looked up)
Iduronate 2-sulfatase 42 kDa …: TDALNVLLIIVDDLRPSLGCYGDKLVRSPNIDQLASHSLLFQNAFAQQAVCAPSRVSFLTGRRPDTTRLYDFNSYWRVHAGNFSTIPQYFKENGYVTMSVGKVFHPGISSNHTDDSPYSWSFPPYHPSSEKYENTKTCRGPDGELHANLLCPVDVLDVPEGTLPDKQSTEQAIQLLEKMKTSASPFFLAVGYHKPHIPFRYPKEFQKLYPLENITLAPDPEVPDGLPPVAYNPWMDIRQREDVQALNISVPYGPIPVDFQRKIRQSYFASVSYLDTQVGRLLSALDDLQLANSTIIAFTSDHGWALGEHGEWAKYSNFDVATHVPLIFYVPGRTASLPEAGEKLFPYLDPFDSASQLMEPGRQSMDLVELVSLFPTLAGLAGLQVPPRCPVPSFHVELCREGKNLLKHFRFRDLEEDPYLPG
Iduronate 2-sulfatase 14 kDa …: NPRELIAYSQYPRPSDIPQWNSDKPSLKDIKIMGYSIRTIDYRYTVWVGFNPDEFLANFSDIHAGELYFVDSDPLQDHNMYNDSQGGDLFQLLMP
B10: pegademase bovine (protein, UniProt P56658 2-363, looked up)
Adenosine deaminase: AQTPAFNKPKVELHVHLDGAIKPETILYYGRKRGIALPADTPEELQNIIGMDKPLSLPEFLAKFDYYMPAIAGCREAVKRIAYEFVEMKAKDGVVYVEVRYSPHLLANSKVEPIPWNQAEGDLTPDEVVSLVNQGLQEGERDFGVKVRSILCCMRHQPSWSSEVVELCKKYREQTVVAIDLAGDETIEGSSLFPGHVKAYAEAVKSGVHRTVHAGEVGSANVVKEAVDTLKTERLGHGYHTLEDATLYNRLRQENMHFEVCPWSSYLTGAWKPDTEHPVVRFKNDQVNYSLNTDDPLIFKSTLDTDYQMTKNEMGFTEEEFKRLNINAAKSSFLPEDEKKELLDLLYKAYGMPSPASAEQCL
modifications: PEG conjugate

Conditions: in vivo

Molecule	DILI +VE (5-8), DILI -VE (-4)	DILI severity category
B1	-VE	vNo-DILI-Concern
B2	+VE	vLess-DILI-Concern
B3	-VE	Ambiguous DILI-concern
B4	-VE	Ambiguous DILI-concern
B5	-VE	vNo-DILI-Concern
B6	-VE	vNo-DILI-Concern
B7	-VE	vNo-DILI-Concern
B8	-VE	Ambiguous DILI-concern
B9	-VE	vNo-DILI-Concern
B10	-VE	vNo-DILI-Concern
